Results published in US20110256132A1 (published 2011).
Numbering of substitutions follows the chain as printed. Names may count otherwise. Where two headings read alike, the source gives them in different places. Each block holds one binder with its values, some of them ahead of it.

Columns and labels:
[1] = biological target: T1, mature myostatin (recombinant, dimeric) (mouse polyprotein used for in-house …, UniProt O08689 268-376); experiment: BIAcore, high density myostatin surface, antibody analyte, 1:1 model (poor fits)
T1 construct: also called GDF-8; recombinant myostatin
T1 sequence: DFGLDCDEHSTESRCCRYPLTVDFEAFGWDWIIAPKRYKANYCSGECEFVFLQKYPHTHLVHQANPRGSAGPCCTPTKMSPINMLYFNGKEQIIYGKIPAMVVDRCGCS
Protocol: (§1) Purified H0L0, H1L2 and H2L2 bound recombinant myostatin by BIAcore™ Recombinant myostatin was immobilised at three different densities (low, medium and high, to give R-max values of approximately 35, 120 and 350 RU's respectively) onto a BIAcore™ chip. Antibodies were passed over at 256, 64, 16, 4 and 1 nM. 0 nM antibody was used for double referencing and data was fitted to the 1:1 model.

[2] = biological target: T1, mature myostatin (recombinant, dimeric); experiment: BIAcore, low density myostatin surface, antibody analyte, 1:1 model
Protocol: as §1

[3] = biological target: T1, mature myostatin (recombinant, dimeric); experiment: BIAcore, medium density myostatin surface, antibody analyte, 1:1 model (poor fits)
Protocol: as §1

[4] = biological target: T1, mature myostatin (recombinant, dimeric); experiment: BIAcore T100 full kinetics, high density myostatin surface, Bivalent model
Protocol: The CDRH3 variants were passed over all three surfaces at 256 nM, 64 nM, 16 nM, 4 nM, 1 nM with a buffer injection (i.e. 0 nM) used for double referencing, regeneration was using 100 mM phosphoric acid. The data was fitted to the Bivalent model inherent to the T100 Biacore machine and was run using HBS-EP at 25° C.

[5] = biological target: T1, mature myostatin (recombinant, dimeric); experiment: competition ELISA, biotinylated myostatin on streptavidin, competitor 10B3
Protocol: (§2) A 96-well ELISA plate was coated at 4° C. overnight with 2.5 μg/ml polyclonal Antibody to Myostatin (R&D Systems AF788). This plate was then washed 3-times in wash buffer (PBS, 0.1% Tween-20) and blocked for 1 hour at room temperature with block solution (PBS, 0.1% Tween-20+1% bovine serum albumin [BSA]). Then, myostatin was added at 1 μg/ml in block buffer during 1 hour followed by 3-times in wash buffer. Antibodies were then titrated out to a suitable concentration range (approximately 10 to 0.01 μg/ml), added to the plate and incubated for 1 hour at room temperature. The plate was then washed 3-times in wash buffer. An anti-human kappa light chain HRP-conjugated antibody (Sigma A7164, used according to the manufacturer's instructions) was used to detect binding of humanized or chimeric antibodies, such as 10B3 chimera (HcLc) or H0L0. The plate was then washed 3-times in wash buffer and developed with an OPD substrate (according to the manufacturer's instructions) and read at 490 nm on a plate reader.
(§3) The protocol set out in 6.7 was used but the plates were initially coated at 4° C. overnight with 5 μg/ml of streptavidin. Biotinylated myostatin was added at 0.3 μg/ml block buffer during 1 hour followed by 3-times in wash buffer. 10B3 (final concentration of 0.2 μg/ml) was added into each well and mixed with antibodies titrated out to a suitable concentration range (approximately 10 to 0.01 μg/ml). An anti-mouse HRP-conjugated antibody (DAKO P0260, used according to the manufacturer's instructions) was used to detect binding of the 10B3 antibody.

[6] = biological target: T1, mature myostatin (recombinant, dimeric); experiment: BIAcore, low density myostatin surface, methods as in 4.3
[7] = biological target: T1, mature myostatin (recombinant, dimeric); experiment: cell-based or functional assay
[8] = biological target: T1, mature myostatin (recombinant, dimeric); experiment: myostatin binding ELISA, 10 ng/well recombinant myostatin coated, CHOK1 supernatants, anti-human kappa HRP, OPD, A490 (Examples 4.1, 4.2)
Protocol: The myostatin binding ELISA was carried out approximately according to this protocol. A 96-well ELISA plate was coated at 4° C. overnight with 10 ng/well recombinant myostatin. This plate was then washed 3-times in wash buffer (PBS, 0.1% Tween-20). The wells were blocked for 1 hour at room temperature with block solution (PBS, 0.1% Tween-20+1% bovine serum albumin [BSA]), before washing 3-times in wash buffer. Antibodies were then titrated out to a suitable concentration range (approximately 100 to 0.001 μg/ml), added to the plate and incubated for 1 hour at room temperature. The plate was then washed 3-times in wash buffer. An anti-mouse IgG HRP-conjugated antibody (P0260 by Dako, this reagent was used according to the manufacturer's instructions) was used to detect binding of mouse antibodies, such as 10B3. An anti-human kappa light chain HRP-conjugated antibody (A7164 by Sigma Aldridge, this reagent was used according to the manufacturer's instructions) was used to detect binding of humanized or chimeric antibodies, such as 10B3 chimera or H0L0. The plate was then washed 3-times in wash buffer and developed with an OPD substrate (from Sigma, used according to the manufacturer's instructions) and read at 490 nm on a plate reader.

[9] = biological target: T1, mature myostatin (recombinant, dimeric); experiment: competition ELISA, directly coated myostatin, competitor 10B3
Protocol: as §2
as §3, with “0.2” for “5”, “of” for “of streptavidin. Biotinylated”, “(recombinant in-house, see 1.1 above).” for “was added at 0.3 μg/ml block buffer during 1 hour followed by 3-times in wash buffer.”, “0.3” for “0.2”

[10] = biological target: T1, mature myostatin (recombinant, dimeric); experiment: cell-based or functional assay; remark: listed apart in the source
[11] = biological target: T1, mature myostatin (recombinant, dimeric); experiment: competition ELISA, myostatin captured by polyclonal antibody, competitor 10B3
Protocol: as §2
The protocol set out in 6.7 was used with the addition of 10B3 (final concentration of […]) to each well and mixed with the antibodies titrated out to a suitable concentration range (approximately 10 to 0.01 μg/ml). An anti-mouse HRP-conjugated antibody (DAKO P0260, used according to the manufacturer's instructions) was used to detect binding of the 10B3 antibody.

[12] = biological target: T1, mature myostatin (recombinant, dimeric); experiment: cell-based or functional assay; remark: listed apart in the source

Kd [1]: 2.42 nM
koff [1]: 0.000223 s⁻¹
kon [1]: 92200 M⁻¹ s⁻¹
Kd [2]: 15.1 nM
koff [2]: 0.00332 s⁻¹
kon [2]: 220000 M⁻¹ s⁻¹
Kd [3]: 5.06 nM
koff [3]: 0.000693 s⁻¹
kon [3]: 137000 M⁻¹ s⁻¹
B1: H1L2 (antibody, human IgG1, kappa)
heavy: not shown
light: DIQMTQSPSSLSASVGDRVTITCKASQDINSYLSWFQQKPGKAPKSLIYRANRLVDGVPSKFSGSGSGTDYTLTISSLQPEDFATYYCLQCDEFPLTFGQGTKLEIKRTVAAPSVFIFPPSDEQLKSGTASVVCLLNNFYPREAKVQWKVDNALQSGNSQESVTEQDSKDSTYSLSSTLTLSKADYEKHKVYACEVTHQGLSSPVTKSFNRGEC
notes: Humanised, human IgG1 wild type/kappa

fold of affinity against F100G_Y [4]: ≤ 2 fold
ranking order top (1) to bottom (5), myostatin competition ELISA [5]: 5
B2: H2L2-C91S_Y96L (antibody, human IgG1, kappa, name in Kabat numbering, V domains shown)
VH: QVQLVQSGAEVKKPGASVKVSCKASGYSFTGYFMHWVRQAPGQGLEWMGNIYPYNGVSNYNQRFKARVTMTTDTSTSTAYMELRSLRSDDTAVYYCARRLYYGTGPADWYFDVWGQGTLVTVSS
VL: DIQMTQSPSSLSASVGDRVTITCKASQDINSYLSWFQQKPGKAPKSLIYRANRLVDGVPSKFSGSGSGTDYTLTISSLQPEDFATYYCLQSDEFPLTFGQGTKLEIKR

Kd [6]: 33.3 nM
Mean IC50, A204 in vitro activity assay [7]: 10.4 nM
B3: H2L2 N54Q & C91S (H2L2-N54Q-C91S) (antibody, human IgG1, kappa, V domains shown)
VH: B2 VH with N55Q, L100Y
VL: B2 VL

binding result [8]: binds
B4: H2L1 (antibody, human IgG1, kappa)
heavy: not shown
light: B1 light with G16R, Y71F
notes: as for B1

fold of affinity against F100G_Y [4]: ≤ 2 fold
B5: H2L2-C91S_G99S (antibody, human IgG1, kappa, name in Kabat numbering, V domains shown)
VH: B2 VH with L100Y, G103S
VL: B2 VL

ranking order top (1) to bottom (5), myostatin competition ELISA [9]: 1
Mean IC50, A204 in vitro activity assay (5 nM myostatin) [10]: 4.24 nM
ranking order top (1) to bottom (5), myostatin competition ELISA [11]: 1
B6: H2L2-C91S_P100B_F (antibody, human IgG1, kappa, V domains shown)
VH: B2 VH with L100Y, P106F
VL: B2 VL

ranking order top (1) to bottom (5), myostatin competition ELISA [9]: 2
Mean IC50, A204 in vitro activity assay (5 nM myostatin) [10]: 3.64 nM
Mean IC50, A204 in vitro activity assay [12]: 11.1 nM
ranking order top (1) to bottom (5), myostatin competition ELISA [5]: 2
ranking order top (1) to bottom (5), myostatin competition ELISA [11]: 4
B7: H2L2-C91S_F100G_Y (antibody, human IgG1, kappa)
heavy: not shown
light: B1 light with C91S
notes: Fc not disabled

binding result [8]: binds
B8: H2L3 (antibody, human IgG1, kappa)
heavy: not shown
light: B1 light with Y71F, Q100A
notes: as for B1

ranking order top (1) to bottom (5), myostatin competition ELISA [9]: 3
Mean IC50, A204 in vitro activity assay (5 nM myostatin) [10]: 5.51 nM
fold of affinity against F100G_Y [4]: ≤ 2 fold
ranking order top (1) to bottom (5), myostatin competition ELISA [5]: 4
ranking order top (1) to bottom (5), myostatin competition ELISA [11]: 2
B9: H2L2-C91S_V102N (antibody, human IgG1, kappa, name in Kabat numbering, V domains shown)
VH: B2 VH with L100Y, V113N
VL: B2 VL

binding result [8]: binds
B10: H2L0 (antibody, human IgG1, kappa)
heavy: not shown
light: B1 light with Y71F
notes: as for B1

fold of affinity against F100G_Y [4]: ≤ 2 fold
ranking order top (1) to bottom (5), myostatin competition ELISA [11]: 5
B11: H2L2-C91S_G99D (antibody, human IgG1, kappa, name in Kabat numbering, V domains shown)
VH: B2 VH with L100Y, G103D
VL: B2 VL

ranking order top (1) to bottom (5), myostatin competition ELISA [9]: 4
Mean IC50, A204 in vitro activity assay (5 nM myostatin) [10]: 4.22 nM
fold of affinity against F100G_Y [4]: ≤ 2 fold
ranking order top (1) to bottom (5), myostatin competition ELISA [5]: 1
ranking order top (1) to bottom (5), myostatin competition ELISA [11]: 3
B12: H2L2-C91S_V102S (antibody, human IgG1, kappa, name in Kabat numbering, V domains shown)
VH: B2 VH with L100Y, V113S
VL: B2 VL

ranking order top (1) to bottom (5), myostatin competition ELISA [9]: 5
Mean IC50, A204 in vitro activity assay (5 nM myostatin) [10]: 4.53 nM
ranking order top (1) to bottom (5), myostatin competition ELISA [5]: 3
B13: H2L2-C91S_P100B_I (antibody, human IgG1, kappa, V domains shown)
VH: B2 VH with L100Y, P106I
VL: B2 VL

fold of affinity against F100G_Y [4]: ≤ 2 fold
B14: H2L2-C91S_G100A_K (antibody, human IgG1, kappa, V domains shown)
VH: B2 VH with L100Y, G105K
VL: B2 VL
